According to IntAct's records for PubMed 22238662:

B1: Adhesion G-protein coupled receptor G1 (Mus musculus), Q8K209 (parent)
chain: MAVQVLRQMVYFLLSLFSLVQGAHSGSPREDFRFCGQRNQTQQSTLHYDQSSEPHIFVWNTEETLTIRAPFLAAPDIPRFFPEPRGLYHFCLYWSRHTGRLHLRYGKHDYLLSSQASRLLCFQKQEQSLKQGAPLIATSVSSWQIPQNTSLPGAPSFIFSFHNAPHKVSHNASVDMCDLKKELQQLSRYLQHPQKAAKRPTAAFISQQLQSLESKLTSVSFLGDTLSFEEDRVNATVWKLPPTAGLEDLHIHSQKEEEQSEVQAYSLLLPRAVFQQTRGRRRDDAKRLLVVDFSSQALFQDKNSSQVLGEKVLGIVVQNTKVTNLSDPVVLTFQHQPQPKNVTLQCVFWVEDPASSSTGSWSSAGCETVSRDTQTSCLCNHLTYFAVLMVSSTEVEATHKHYLTLLSYVGCVISALACVFTIAAYLCSRRKSRDYTIKVHMNLLSAVFLLDVSFLLSEPVALTGSEAACRTSAMFLHFSLLACLSWMGLEGYNLYRLVVEVFGTYVPGYLLKLSIVGWGFPVFLVTLVALVDVNNYGPIILAVRRTPERVTYPSMCWIRDSLVSYVTNLGLFSLVFLFNLAMLATMVVQILRLRPHSQNWPHVLTLLGLSLVLGLPWALVFFSFASGTFQLVILYLFSIITSFQGFLIFLWYWSMRFQAQGGPSPLKNNSDSAKLPISSGSTSSSRI

Variants of: B1
Conditions: with co3a1_mouse Col3a1, P08121
Sequence of co3a1_mouse Col3a1, P08121 (P08121 whole entry): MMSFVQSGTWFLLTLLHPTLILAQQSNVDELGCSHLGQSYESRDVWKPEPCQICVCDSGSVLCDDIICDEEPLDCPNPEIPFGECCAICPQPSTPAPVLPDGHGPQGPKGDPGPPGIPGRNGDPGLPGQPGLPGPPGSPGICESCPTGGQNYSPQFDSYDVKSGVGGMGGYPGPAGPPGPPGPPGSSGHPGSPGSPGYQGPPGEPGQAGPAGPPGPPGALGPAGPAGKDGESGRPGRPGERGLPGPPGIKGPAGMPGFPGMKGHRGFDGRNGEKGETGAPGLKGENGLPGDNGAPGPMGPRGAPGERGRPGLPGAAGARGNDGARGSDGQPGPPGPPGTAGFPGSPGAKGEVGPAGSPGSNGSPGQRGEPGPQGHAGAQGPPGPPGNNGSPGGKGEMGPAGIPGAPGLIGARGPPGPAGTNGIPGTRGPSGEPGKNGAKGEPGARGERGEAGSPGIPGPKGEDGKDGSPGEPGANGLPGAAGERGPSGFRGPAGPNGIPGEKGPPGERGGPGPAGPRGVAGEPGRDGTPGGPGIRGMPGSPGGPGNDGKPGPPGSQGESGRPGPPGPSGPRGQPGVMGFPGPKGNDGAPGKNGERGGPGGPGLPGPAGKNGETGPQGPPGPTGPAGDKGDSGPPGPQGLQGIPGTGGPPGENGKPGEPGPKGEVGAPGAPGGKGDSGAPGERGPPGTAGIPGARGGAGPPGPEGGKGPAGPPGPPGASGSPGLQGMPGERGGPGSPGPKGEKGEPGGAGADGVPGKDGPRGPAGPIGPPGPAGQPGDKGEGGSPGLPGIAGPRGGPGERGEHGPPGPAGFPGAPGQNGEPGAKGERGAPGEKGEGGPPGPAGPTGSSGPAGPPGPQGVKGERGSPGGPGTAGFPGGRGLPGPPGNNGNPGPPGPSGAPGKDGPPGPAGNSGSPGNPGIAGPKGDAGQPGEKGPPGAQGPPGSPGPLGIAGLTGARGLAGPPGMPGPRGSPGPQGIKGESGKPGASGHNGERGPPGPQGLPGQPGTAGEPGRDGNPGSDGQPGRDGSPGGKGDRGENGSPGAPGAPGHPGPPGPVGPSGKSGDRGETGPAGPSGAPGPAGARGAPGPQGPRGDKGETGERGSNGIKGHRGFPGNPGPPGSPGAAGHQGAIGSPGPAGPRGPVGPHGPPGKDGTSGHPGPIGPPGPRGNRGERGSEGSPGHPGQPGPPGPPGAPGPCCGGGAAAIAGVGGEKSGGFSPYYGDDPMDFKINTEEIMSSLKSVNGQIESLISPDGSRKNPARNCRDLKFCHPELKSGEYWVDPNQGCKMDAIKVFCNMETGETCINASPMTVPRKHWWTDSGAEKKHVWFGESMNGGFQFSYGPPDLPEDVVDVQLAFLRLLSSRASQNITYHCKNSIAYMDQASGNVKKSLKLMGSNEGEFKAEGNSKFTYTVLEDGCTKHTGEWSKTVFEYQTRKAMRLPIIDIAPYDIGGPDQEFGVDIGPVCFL

| Variant | effect of a mutation on the interaction |
| --- | --- |
| C91S | disrupting interaction |
| Y88C | disrupting interaction |
| R38W | disrupting interaction |
| R38Q | disrupting interaction |
